Molecular target: T1, recombinant MERS-CoV S1 protein (MERS-CoV, isolate EMC/2012 (strain of …, UniProt K0BRG7))
T1 construct: source: bought: Sino Biological Inc
Assay: ELISA
Conditions: both partners purified

B1:  (Fab, V domains shown)
VH: QVQLVQSGAEVKKPGSSVKVSCKASGGTFSSYAISWVRQAPGQGLEWMGGIIPILGTASYAQKFQGRVTITADKSTSTAYMELSSLRSEDTAVYYCARVGYCSSTSCNRGAFDIWGQGTMVTVSS
VL: DIQLTQSPSSLSASVGDRVTITCRASQGIRNDLGWYQQKPGKAPKLLIYAASSLQSGVPSRFSGSGSGTDFTLTISSLQPEDFATYYCQQLNSYPLTFGGGTKVEIK
notes: also called m336 F54L
fold reduction (EC50) against wild-type m336: ≥ 1000 fold

B2:  (Fab, V domains shown)
VH: QVQLVQSGAEVKKPGSSVKVSCKASGGTFSSYAISWVRQAPGQGLEWMGGIIPIFGTASYAQKFQGRVTITADESTSTAYMELSSLRSEDTAVYYCARVGYCSSTSCNRGAFDIWGQGTMVTVSS
VL: DIQLTQSPSSLSASVGDRVTITCRASQGIRNDLGWYQQKPGKAPKLLIYAASSLQSGVPSRFSGSGSGTDFTLTISSLQPEDFATYYCQQLNSYPLTFGGGTKVEIK
notes: also called m336 K73E
fold reduction of binding affinity against m336: ≥ 10 fold
